One block for each binder: values may come before it.
Key:
[1] = target: the molecule itself; experiment: crystal structure; hPF4 (7 mg/ml) with six-fold molar excess fondaparinux in PBS and 0.3 M NaCl; hanging drop, 16 °C, 2% PEG4000, 17% MPD, 0.1 M sodium acetate pH 5.6; 2.50 Å
PF4 tetramer (human PF4) = target: T1, PF4 tetramer (human PF4) (human, UniProt P02776); experiment: crystal structure; KKO-Fab (5 mg/ml) mixed with hPF4, on ice overnight; hanging drop, 16 °C, 7% PEG6000, 0.1 M Tris-HCl pH 7.8; 4.10 Å; conditions: both partners purified
T1 construct: platelet factor 4 (PF4), human, wild type, same construct as m1, as the tetramer; Same protein as m1; also called hPF4 tetramer

[2] = target: T2, wild-type human platelet factor 4 (hPF4) (human, UniProt P02776); experiment: ELISA; Immulon 4 HBX plates coated overnight with PF4 or PF4 mutant at 5 ug/ml, blocked with 1% BSA in PBS; antibody in solution; A405; conditions: both partners purified
T2 construct: platelet factor 4 (PF4), human, wild type, expressed from plasmid pMT/BiP/V5-His; Probably the mature 70-residue PF4 behind the BiP signal of the vector; also called wtPF4; rPF4

B1: wild-type human platelet factor 4 (hPF4) (natural protein)
chain: EAEEDGDLQCLCVKTTSQVRPRHITSLEVIKAGPHCPTAQLIATLKNGRKICLDLQAPLYKKIIKKLLES
notes: platelet factor 4 (PF4), human, wild type, expressed from plasmid pMT/BiP/V5-His; Probably the mature 70-residue PF4 behind the BiP signal of the vector; also called wtPF4; rPF4
stoichiometry N [1]: 4

binding result (PF4 tetramer (human PF4)): binds
B2: KKO-Fab (Fab fragment of the murine monoclonal HIT-like anti-PF4 antibody KKO) (Fab, V domains shown)
VH: VQLQQSGAELVKPGASVKLSCKASGYTFTNYFIYWVKQRPGQGLEWIGEINPRNGDTDFNEKFESRATLTVDKSSSTAYMQLSSLTSEDSAIYYCTRSPYGNNYGFTYWGQGTLVTVSA
VL: DIQMIQSQKFMSTSVGDRVTVTCKASQNVGTNVAWYQQKPGQSPNALIYSASYRYSGVPDRFTGSGSGTDFTLTITNVQSEDLADYFCQQYNSYPLTFGTGTKLDLK
notes: From murine IgG2b kappa KKO

binding result [2]: binds
B3: KKO (murine anti-human PF4 IgG2bκ monoclonal antibody) (antibody, V domains shown)
VH: B2 VH
VL: B2 VL
notes: Fab part as the heavy chain of m3 (PDB 4R97, PDB 4R9Y); as the light chain of m3 (PDB 4R97, PDB 4R9Y); IgG2b kappa, whole IgG; also called HIT antibody KKO; HIT-like antibody KKO; source: purified from conditioned PFHM-II media (protein A-agarose); copies: 2 + 2

Source: paper PMC4580983 (Nature Communications, 2015)
